Tests used:
[1] = molecular target: HLA-A201/LMP-1 monomer (recombinant, membrane free, refolded complex of HLA-A201 heavy chain, beta-2 microglobulin and LMP-1 peptide …) (human; Epstein-Barr virus); assay: dose response curve, antigen at 15 ng/ml (method of Beatty et al.)
[2] = molecular target: HLA-A201/LMP-1 monomer (recombinant, membrane free, refolded complex of HLA-A201 heavy chain, beta-2 microglobulin and LMP-1 peptide …) (human; Epstein-Barr virus); assay: Kaff from OD50 at two antigen concentrations (Beatty et al.), [Ag] 60 ng/ml
[3] = molecular target: HLA-A201/LMP-1 monomer (recombinant, membrane free, refolded complex of HLA-A201 heavy chain, beta-2 microglobulin and LMP-1 peptide …) (human; Epstein-Barr virus); assay: average Kaff (Beatty et al. method)
[4] = molecular target: HLA-A201/LMP-1 monomer (recombinant, membrane free, refolded complex of HLA-A201 heavy chain, beta-2 microglobulin and LMP-1 peptide …) (human; Epstein-Barr virus); assay: Kaff from OD50 at two antigen concentrations (Beatty et al.), [Ag] 30 ng/ml
[5] = molecular target: HLA-A201/LMP-1 monomer (recombinant, membrane free, refolded complex of HLA-A201 heavy chain, beta-2 microglobulin and LMP-1 peptide …) (human; Epstein-Barr virus); assay: Kaff from OD50 at two antigen concentrations (Beatty et al.), [Ag] 15 ng/ml
[6] = molecular target: HLA-A201/LMP-1 monomer (recombinant, membrane free, refolded complex of HLA-A201 heavy chain, beta-2 microglobulin and LMP-1 peptide …) (human; Epstein-Barr virus); assay: dose response curve, antigen at 30 ng/ml (method of Beatty et al.)
[7] = molecular target: HLA-A201/LMP-1 monomer (recombinant, membrane free, refolded complex of HLA-A201 heavy chain, beta-2 microglobulin and LMP-1 peptide …) (human; Epstein-Barr virus); assay: Kaff from OD50 at two antigen concentrations (Beatty et al.), [Ag] 120 ng/ml
[8] = molecular target: HLA-A201/LMP-1 monomer (recombinant, membrane free, refolded complex of HLA-A201 heavy chain, beta-2 microglobulin and LMP-1 peptide …) (human; Epstein-Barr virus); assay: dose response curve, antigen at 60 ng/ml (method of Beatty et al.)
[9] = molecular target: HLA-A201/LMP-1 monomer (recombinant, membrane free, refolded complex of HLA-A201 heavy chain, beta-2 microglobulin and LMP-1 peptide …) (human; Epstein-Barr virus); assay: dose response curve, antigen at 120 ng/ml (method of Beatty et al.)

With “BB7.2 (pan anti-HLA-A2), commercially available anti-HLA-A2 antibody” the [mAb] at OD50 [1] was 121 ng/mL, the Ka [2] was 1.01e+09 M⁻¹ and the Ka [3] was 7.17e+08 M⁻¹. The Ka [4] was 8.71e+08 M⁻¹, the Ka [5] was 4.31e+08 M⁻¹ and the [mAb] at OD50 [6] was 68.1 ng/mL. The Ka [7] was 5.7e+08 M⁻¹, the [mAb] at OD50 [8] was 54.1 ng/mL and the [mAb] at OD50 [9] was 26.1 ng/mL.

Source: US20120294874A1
